US20250154215A1, “PHARMACEUTICAL COMPOSITION FOR TREATING COLITIS OR COLORECTAL CANCER COMPRISING COLON-TARGETED S100A8/A9-DERIVED SPECIFIC PEPTIDE” (Industry-University Cooperation Foundation Hanyang …, priority 2023, published 2025)
No end group written: not given here.

Assays:
[1] = system: OxaR CRC cells (HT29, HCT116 and SW480); test: WST-8-based cell viability assay in parental and drug-resistant CRC cell lines; conditions: HT29, HCT116, SW480 OxaR; 24 hours
Excerpt: To establish a CRC cell model resistant to oxaliplatin, doxorubicin, or 5-FU, HT29, HT116, and SW480 cells were exposed to progressively increasing concentrations of oxaliplatin, doxorubicin, or 5-FU. The established oxaliplatin, doxorubicin, and 5-FU resistant cells were named OxaR, DoxR, and 5-FuR cells, respectively.
To confirm the inhibitory effect of rCT-S100A8/A9 on oxaliplatin resistance, the present inventors performed a water-soluble tetrazolium-8 (WST-8)-based cell viability assay using parental cells of three CRC cell lines, HT29, HCT-116 and SW480, and their corresponding oxaliplatin-resistant (OxaR) cell lines. OxaR CRC cells (HT29, HCT116 and SW480) were established by long-term exposure of CRC cells to oxaliplatin as described in Example 1.

[2] = The results of in vitro plasma stability, microsomal stability, CYP inhibition and PK profile of S100A8/A9 peptides and rCT-S100A8/A9 proteins; conditions: mouse, plasma, ip, 1 mg/kg
Description: Table printed on a drawing sheet, Fig. 5B
Title: The results of in vitro plasma stability, microsomal stability, CYP inhibition and PK profile of S100A8/A9 peptides and rCT-S100A8/A9 proteins
The patent's description of the figure: FIGS. 5A and 5B show the drug-like properties of rCT-S100A8/A9. […] Bacteria-purified 6×His-rCT-S100A8/9, rVehicle or rCT was analyzed by Coomassie staining or IB using αHis (bottom, left). BMDMs were incubated with rVehicle, rCT, or rCT-S100A8/9 for the indicated times and at the indicated concentrations, and then cell viability was measured by MTT assay (bottom, right). […] HLM, human liver microsomes; CYP, cytochrome P450. aTmax, arrival time; AUClast, total area under the plasma concentration-time curve from time 0 to the time of the last measurement; Cmax, maximum plasma concentration;
First reader's note: All values were measured after ip dosing of 1 mg/kg in mice (n = 5); the footnote for the raised a is not printed on the sheet, and the title stands once above both tables.

[3] = target: T1, endogenous RAGE of mouse BMDMs and mouse colon (mouse, UniProt Q62151 23-402); test: co-IP from colon lysates of acute colitis, chronic colitis and CRC mice (IP αRAGE, IB αS100A8), FIG. 1D
T1 construct: whole, on cells; Endogenous protein, immunoprecipitated with αRAGE from BMDM or colon lysates; also called receptor for advanced glycation end products
Description: (§1) The 293T cells were used for immunoprecipitation (IP) including αMyc, and then for immunoblotting (IB) including αHA or αHis. […] Bone marrow-derived macrophages (BMDMs) were incubated with rHA-S100A8 or rHis-S100A9 (5 μg/ml) for 10 minutes. The BMDMs were subjected to IP using αTLR4 (FIG. 1A, right) or αRAGE (FIG. 1B, right), and then subjected to IB using αHA, αHis, αTLR4, or αRAGE. The WCLs were used for IB including αHA, αHis, αTLR4, αRAGE, or αActin. In FIG. 1C, on the left, relative expression of S100A8 or S100A9 in colons of normal, acute colitis, chronic colitis, and colorectal cancer mice was determined, and biological replicates (n=10) were used for each condition. On the right, IB was performed on sera from normal, acute colitis, chronic colitis, and colorectal cancer mice using αS100A8 or αS100A9. Coomassie blue (CB)-stained gels show consistent loading of serum proteins. Data from 3 out of 10 samples is shown. […] The WCLs were used for IB including αS100A8, αS100A9, αTLR4, αRAGE, or αActin. Data is representative of seven independent experiments with similar results (FIGS. 1A-1D);
(§2) 293T, BMDMs, and THP-1 cells were treated as indicated and processed for analysis by GST pulldown, Western blotting, and co-IP analysis. For GST pulldown, 293T cells were harvested and lysed in an NP-40 buffer including a complete protease inhibitor cocktail (Roche, Basel, Switzerland). […]

[4] = target: T2, endogenous TLR4 of mouse BMDMs and mouse colon (mouse, UniProt Q9QUK6 26-835); test: co-IP from mouse colon lysates (IP αTLR4, IB αS100A8), FIG. 1D
T2 construct: whole, on cells; Endogenous protein, immunoprecipitated with αTLR4 from BMDM or colon lysates; also called toll-like receptor 4
T2 sequence (looked up): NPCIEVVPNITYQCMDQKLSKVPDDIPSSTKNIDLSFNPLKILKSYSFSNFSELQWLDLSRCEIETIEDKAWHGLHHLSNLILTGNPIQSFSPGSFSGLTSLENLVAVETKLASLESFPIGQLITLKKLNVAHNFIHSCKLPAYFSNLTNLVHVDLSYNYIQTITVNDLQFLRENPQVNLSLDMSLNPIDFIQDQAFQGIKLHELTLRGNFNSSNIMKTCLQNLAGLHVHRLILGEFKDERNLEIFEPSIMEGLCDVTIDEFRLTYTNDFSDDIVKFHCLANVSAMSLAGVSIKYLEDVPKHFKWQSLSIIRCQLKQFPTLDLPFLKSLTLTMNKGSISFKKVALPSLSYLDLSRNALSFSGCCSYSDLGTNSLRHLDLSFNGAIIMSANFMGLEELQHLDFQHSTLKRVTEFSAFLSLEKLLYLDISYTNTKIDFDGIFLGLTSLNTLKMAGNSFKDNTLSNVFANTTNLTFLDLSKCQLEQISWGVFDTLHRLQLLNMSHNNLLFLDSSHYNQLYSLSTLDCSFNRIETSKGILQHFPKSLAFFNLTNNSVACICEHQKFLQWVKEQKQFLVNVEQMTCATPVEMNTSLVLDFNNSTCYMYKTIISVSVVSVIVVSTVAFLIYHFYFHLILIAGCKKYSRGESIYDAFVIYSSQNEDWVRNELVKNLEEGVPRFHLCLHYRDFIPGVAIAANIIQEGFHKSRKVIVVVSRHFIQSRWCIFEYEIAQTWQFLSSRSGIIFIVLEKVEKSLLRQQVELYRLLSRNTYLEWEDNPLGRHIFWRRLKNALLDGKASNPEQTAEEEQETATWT
Description: as §1, §2

[5] = target: T1, endogenous RAGE of mouse BMDMs and …; test: co-IP in BMDMs incubated with recombinant protein at 5 µg/ml (IP αRAGE, IB αHA), FIG. 1B
Description: as §1, §2

[6] = target: T2, endogenous TLR4 of mouse BMDMs and …; test: co-IP in BMDMs incubated with recombinant protein at 5 µg/ml (IP αTLR4, IB αHA), FIG. 1A
Description: as §1, §2

[7] = target: T1, endogenous RAGE of mouse BMDMs and …; test: co-IP in BMDMs incubated with recombinant protein at 5 µg/ml (IP αRAGE, IB αHis), FIG. 1B
Description: as §1, §2

[8] = target: T2, endogenous TLR4 of mouse BMDMs and …; test: co-IP in BMDMs incubated with recombinant protein at 5 µg/ml (IP αTLR4, IB αHis), FIG. 1A
Description: as §1, §2

TLR4 or RAGE = test: Co-IP of recombinant S100A8 or S100A9 with endogenous TLR4 or RAGE in BMDMs; assay type: binding, mouse; conditions: 5 μg/ml, 10 minutes
Description: 293T, BMDMs, and THP-1 cells were treated as indicated and processed for analysis by GST pulldown, Western blotting, and co-IP analysis. For GST pulldown, 293T cells were harvested and lysed in an NP-40 buffer including a complete protease inhibitor cocktail (Roche, Basel, Switzerland). After centrifugation, the supernatant was pre-cleared using protein A/G beads for two hours at 4° C. The pre-cleared lysates were mixed with a 50% slurry of glutathione-conjugated Sepharose beads (Amersham Biosciences, Amersham, UK), and binding reactions were performed for four hours at 4° C. by incubating the lysates at 4° C. The precipitate was extensively washed with a lysis buffer. Proteins bound to the glutathione beads were eluted by boiling for five minutes in a sodium dodecyl sulfate (SDS) loading buffer. For IP, cells were harvested and lysed in an NP-40 buffer supplemented with a complete protease inhibitor cocktail (Roche, Switzerland). […] For immunoblotting (IB), polypeptides were analyzed by SDS-polyacrylamide gel electrophoresis and transferred to polyvinylidene difluoride (PVDF) membranes (Bio-Rad, Hercules, CA, USA). […] Antibody binding was visualized by chemiluminescence (ECL; Millipore, Burlington, MA, USA) and detected using a Vilber chemiluminescence analyzer (Fusion SL 3; Vilber Lourmat). […]

[9] = target: T2, endogenous TLR4 of mouse BMDMs and …; test: co-IP from colon lysates of acute colitis, chronic colitis and CRC mice (IP αTLR4, IB αS100A9), FIG. 1D
Description: as §1, §2

[10] = target: T1, endogenous RAGE of mouse BMDMs and …; test: co-IP from colon lysates of acute colitis, chronic colitis and CRC mice (IP αRAGE, IB αS100A9), FIG. 1D
Description: as §1, §2

T1 sequence (Q62151 23-402): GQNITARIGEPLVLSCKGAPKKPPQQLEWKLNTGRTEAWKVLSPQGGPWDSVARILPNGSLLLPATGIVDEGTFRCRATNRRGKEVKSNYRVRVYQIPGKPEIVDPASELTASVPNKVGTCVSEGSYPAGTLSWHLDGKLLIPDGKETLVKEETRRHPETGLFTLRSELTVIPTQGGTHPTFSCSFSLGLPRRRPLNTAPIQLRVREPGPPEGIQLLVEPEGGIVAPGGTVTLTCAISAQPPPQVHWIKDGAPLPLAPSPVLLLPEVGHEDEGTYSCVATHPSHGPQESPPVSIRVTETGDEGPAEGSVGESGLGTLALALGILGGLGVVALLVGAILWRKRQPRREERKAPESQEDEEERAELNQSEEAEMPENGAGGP

O=C1[O][Pt]2([NH][C@@H]3CCCC[C@H]3[NH]2)[O]C1=O [oxaliplatin, reference compound]
cell viability of OxaR CRC cells [1]: significant resistance to oxaliplatin treatment

FLVIKGGAHKSHKGGITIITFGGGHHGG [S100A8/A9]
Cmax ([2]; read-out: PK parameters (ip, 1 mg/kg, mice (n = 5))^a | Cmax): 102 ± 41.2 ng/mL | half-life ([2]; read-out: PK parameters (ip, 1 mg/kg, mice (n = 5))^a | T1/2 (converted)): 25.2 ± 30.6 min

B1: endogenous mouse S100A8 (ligand, UniProt P27005 2-89, looked up)
chain: PSELEKALSNLIDVYHNYSNIQGNHHALYKNDFKKMVTTECPQFVQNINIENLFRELDINSDNAINFEEFLAMVIKVGVASHKDSHKE
notes: Endogenous protein detected with αS100A8 in co-immunoprecipitates
binding result [3]: binds | binding result [4]: binds

B2: rHA-mS100A8 (ligand)
chain: PSELEKALSNLIDVYHNYSNIQGNHHALYKNDFKKMVTTECPQFVQNINIENLFRELDINSDNAINFEEFLAMVIKVGVASHKDSHKE
notes: Recombinant protein added to BMDMs at 5 µg/ml; also called rHA-S100A8; rS100A8; not shown: HA tag
binding result [5]: binds | binding result [6]: binds

B3: rHis-mS100A9 (ligand)
chain: ANKAPSQMERSITTIIDTFHQYSRKEGHPDTLSKKEFRQMVEAQLATFMKKEKRNEALINDIMEDLDTNQDNQLSFEECMMLMAKLIFACHEKLHENNPRGHGHSHGKGCGK
notes: Recombinant protein added to BMDMs at 5 µg/ml; also called rHis-S100A9; rS100A9; not shown: His tag
binding result [7]: binds | binding result [8]: binds

B4: rHis-mS100A9: recombinant His-tagged S100A9 protein (protein)
chain: ANKAPSQMERSITTIIDTFHQYSRKEGHPDTLSKKEFRQMVEAQLATFMKKEKRNEALINDIMEDLDTNQDNQLSFEECMMLMAKLIFACHEKLHENNPRGHGHSHGKGCGK
modifications: left off: small tags and cut ends
notes: recombinant His-tagged S100A9 protein
binding to PRRs (TLR4 and RAGE) (TLR4 or RAGE): stronger binding to PRRs (TLR4 and RAGE) than rHA-mS100A8

B5: endogenous mouse S100A9 (ligand, UniProt P31725 2-113, looked up)
chain: ANKAPSQMERSITTIIDTFHQYSRKEGHPDTLSKKEFRQMVEAQLATFMKKEKRNEALINDIMEDLDTNQDNQLSFEECMMLMAKLIFACHEKLHENNPRGHGHSHGKGCGK
notes: Endogenous protein detected with αS100A9 in co-immunoprecipitates
binding result [9]: binds | binding result [10]: binds
